# Data from article doi:10.1101/112029.
# Target: untagged murine saposin A (SapA), wild type (murine)
# Experiment: crystal structure
substance,measurement,value
"untagged murine saposin A (SapA), wild type (natural protein)",stoichiometry N,2
